The target of assay [1] is 流感A抗原.
Assay [2] has as its target 流感A抗原. In words: biolayer interferometry, AMC sensors, antibody immobilised, antigen in a dilution series.
Assay [3] has as its target 流感A抗原. In words: sandwich ELISA: antibody at 625 ng/ml captured on goat anti-mouse IgG, Flu-A antigen, HRP-labelled paired mAb. Background: In an ELISA, binding on a coated surface is turned into a signal by an enzyme label.
Assay [4] addresses 流感A抗原. Put plainly: sandwich ELISA: antibody at 1250 ng/ml captured on goat anti-mouse IgG, Flu-A antigen, HRP-labelled paired mAb.
The target of assay [5] is 流感A抗原. Put plainly: sandwich ELISA: antibody at 2500 ng/ml captured on goat anti-mouse IgG, Flu-A antigen, HRP-labelled paired mAb.
Assay [6] addresses 流感A抗原. Put plainly: sandwich ELISA: antibody at 5000 ng/ml captured on goat anti-mouse IgG, Flu-A antigen, HRP-labelled paired mAb.
In assay [7] the target is 流感A抗原. Put plainly: sandwich ELISA: antibody at 312.5 ng/ml captured on goat anti-mouse IgG, Flu-A antigen, HRP-labelled paired mAb.

The values below come from patent publication CN114075278A.

Where two headings read alike, the source gives them in different places.

B1: 实施例1的抗Flu-A抗体(WT) (antibody, V domains shown)
VH: EVQLQQSGPELVKPGASVKISCKASGFSFSGYYLHWVRQSPLKSLEWIGRINPYNGGTTYNQDFKGKASLTVDKSSSTAYMELHSLTSEDSAVYYCARYSSVDAMDYWGQGTSVTVSS
VL: QIVLTQSPAIMSASLGERVTMTCTGSSSVLSSYLHWYQQKPGSSPKLWIYSSSNLASGVPARFSGSGSGTSYSLTISSMEAEDAATYYCQQWHRSPWTFGGGTKLEIKR
Regarding B1, the OD450 (ref 630 nm) in the assay with 流感A抗原 [1] was more than 1 OD; in the assay with 流感A抗原 [3], 0.754 OD; with 流感A抗原 [4], 0.946 OD; with 流感A抗原 [5], 1.39 OD; with 流感A抗原 [6], 1.73 OD; with 流感A抗原 [7], 0.535 OD. In addition, the Kd with 流感A抗原 [2] is 40.5 nM.

For orientation: Kd means the constant that tells how readily two partners part at equilibrium.
